± gives the standard deviation.

A short description of the data set: protein stability index of a GFP-peptide fusion (GPS, HEK-293T) (PSI 1-6); higher = more stable. As to conditions: c terminus: a fixed tail appended.
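Further: 24-mer peptide tiles fused after GFP, lentivirally expressed, FACS-sorted into six equal bins by GFP/DsRed ratio, decoded by Illumina sequencing, PSI is the read-weighted mean bin number.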

Consider VISQLEQGTELWVAERGTTQGCHP [ZNF8], for which the protein stability index runs as follows: (treatment: DMSO) 3.96 ± 0.29; (treatment: MLN4924 1 uM, 8 h) 3.99 ± 0.45.
The like results for VLCGVVMDRSLVQDAPLSDCTETI [ADD1] were, in that order, 3.11 ± 0.27 and 2.99 ± 0.41.
The matching figures for VLETKWELLQQLDLNNCKNNLEPI [KRT71]: 3.2 ± 0.17 and 3.17 ± 0.29.
The matching figures for VLLIKDRTSKSRGFAFITFENPAD [RBMY1A1]: 2.83 ± 0.88 and 3.06 ± 1.5.
For VLMWTMLFLGQGIQVSLYCQEWYA [SOAT2], the protein stability index is, setting by setting: (treatment: DMSO) 2.87 ± 0.36; (treatment: MLN4924 1 uM, 8 h) 3.3 ± 0.6.
With VLPEDRILREELQKQRLREILEQQ [ZNF277], the protein stability index runs as follows: (treatment: DMSO) 4.63 ± 0.4; (treatment: MLN4924 1 uM, 8 h) 4.21 ± 0.41.
The matching figures for VLQHVRLPLLSPKFLVGTVGSDPL [KLHL20]: 2.22 ± 0.28 and 2.13 ± 0.1.
The matching figures for VMSIPDVIRLKQEQHVHNEKSVLK [PRKX]: 4.18 ± 0.15 and 4.25 ± 0.12.
The matching figures for VNEMCPNITRIYNIGKSHQGLKLY [CPXM2]: 2.52 ± 0.35 and 2.57 ± 0.5.
On to VNLEEIPGEGLLISWAFTDRPDLS [C2CD2L], for which the protein stability index is 2.14 ± 0.15 (treatment: DMSO) and 2.08 ± 0.23 (treatment: MLN4924 1 uM, 8 h).
Take VPQALSATTYKHGVLTRKTHADMD [PSD2]: the protein stability index stood at 4.47 ± 0.18 (treatment: DMSO) and 4.56 ± 0.12 (treatment: MLN4924 1 uM, 8 h).
In the case of VPVPPAAAPPPPATPIVPVVPPTP [BRD3], the protein stability index reads like this: (treatment: DMSO) 4.75 ± 0.43; (treatment: MLN4924 1 uM, 8 h) 4.75 ± 0.16.
The like results for VQDWYHFHYVDILALLPAAWEDSH [SCNN1D] were, in that order, 2.77 ± 0.61 and 2.67 ± 0.67.
The like results for VQELLPAACLLQLKGVKQACCEFL [KLHL12] were, in that order, 2.27 ± 0.28 and 1.81 ± 0.37.
The like results for VQEMRNKIREQNLQDIKTAGPQSQ [ADD1] were, in that order, 4.98 ± 0.34 and 5.1 ± 0.1.
For VQTEDQYQFSYRAALEYLGSFDHY [PTPRD], the protein stability index was found to be 2.22 ± 0.26 (treatment: DMSO) and 2.51 ± 0.22 (treatment: MLN4924 1 uM, 8 h).
Turning to VRGLLASLFAFKSFRENWQRAWVR [C2CD2L], the protein stability index (treatment: DMSO) was determined as 2.3 ± 0.59 and the protein stability index (treatment: MLN4924 1 uM, 8 h) stood at 2.61 ± 0.28.
The matching figures for VRRGLAGATTLGDMIYVSGGFDGS [KLHL12]: 2.94 ± 0.56 and 2.87 ± 0.15.
The like results for VSDRLAPGAPRGNPPKASAAPDCT [MYCL] were, in that order, 4.94 ± 0.22 and 4.95 ± 0.19.
The matching figures for VSGLDSSYLREQMLNEPLVREIVK [GAN]: 3.14 ± 0.26 and 2.96 ± 0.25.
For the sequence VSLGATGGPPAGPGGVYAGPEPPP [JUNB], the protein stability index is, setting by setting: (treatment: DMSO) 4.61 ± 0.094; (treatment: MLN4924 1 uM, 8 h) 4.46 ± 0.31.
With VSVNAQTLDGRTPLHLAAQRGHYR [RIPK4], the protein stability index is, setting by setting: (treatment: DMSO) 3.76 ± 0.29; (treatment: MLN4924 1 uM, 8 h) 3.77 ± 0.58.
The like results for VTSNGSIGRDPPAETQPQNPPAQP [CLPTM1] were, in that order, 5.41 ± 0.27 and 5.41 ± 0.15.
The like results for VVETINAAIGVTTSPVLPSLIQLL [HACD3] were, in that order, 2.89 ± 0.74 and 2.81 ± 0.4.
The like results for VVLLQGAELLLAARLLGALAARSG [TSPAN10] were, in that order, 3.52 ± 0.57 and 2.76 ± 0.59.
On to VVLSDGPALHPAHAPQISYTGPSS [NCK2], for which the protein stability index is 3.13 ± 0.37 (treatment: DMSO) and 3.38 ± 0.17 (treatment: MLN4924 1 uM, 8 h).
The matching figures for VWVTHEEMETLETSTKTDSEEGSW [PPFIA4]: 4.19 ± 0.29 and 4.68 ± 0.22.
The matching figures for WDLRMKLHDRGAQVIHPQEFRRWR [DNAAF3]: 2.77 ± 0.35 and 3.02 ± 0.28.
The like results for WGYIRYSGQYRELGGAIDFGAAYV [ATL3] were, in that order, 2.56 ± 0.68 and 2.53 ± 0.69.
For WIKEEAAERYLYFPNWAMALLITL [SLC6A17], the protein stability index (treatment: DMSO) was determined as 2.67 ± 0.79 and the protein stability index (treatment: MLN4924 1 uM, 8 h) is 2.81 ± 0.57.
The like results for WKYALDMQQSNLDPLSPMTASSLL [FEM1C] were, in that order, 2.68 ± 0.19 and 2.84 ± 0.42.
WMEVLVLGVAQRSLPLQDELAFAE [ESRRA]: the protein stability index (treatment: DMSO) was determined as 3.47 ± 0.63 and the protein stability index (treatment: MLN4924 1 uM, 8 h) came to 2.64 ± 0.97.
The like results for WRKRFRPREHHGRGGMLSASAETL [PPFIA4] were, in that order, 3.15 ± 0.22 and 3.26 ± 0.056.
The matching figures for WSLYPSDSQVSEEVKTRHSEKSQR [CHGB]: 4.78 ± 0.17 and 4.8 ± 0.19.
Take WYVCRTQGVEGDHCVTSDPATSPL [TRIM35]: the protein stability index was 3.15 ± 0.18 (treatment: DMSO) and 2.98 ± 0.29 (treatment: MLN4924 1 uM, 8 h).
The matching figures for YADHNYGARPPPTPPASPPPSVLI [KMT2E]: 3.06 ± 0.32 and 3.34 ± 0.4.
The matching figures for YALRAYLGYQAVPSGSSGSLSTSS [CEBPB]: 2.23 ± 0.28 and 2.36 ± 0.3.
Regarding YDTFHTVADMMYFCQMLAVVETIN [HACD3], the protein stability index (treatment: DMSO) worked out at 3.08 ± 0.35 and the protein stability index (treatment: MLN4924 1 uM, 8 h) worked out at 3.17 ± 0.64.
In turn, YEEEFDYETESETESEIESETDFE [GNAS] gave a protein stability index (treatment: DMSO) of 5.12 ± 0.24 and a protein stability index (treatment: MLN4924 1 uM, 8 h) of 5.11 ± 0.16.
The matching figures for YETKYVVLSYLGLLSQEKLQEQHL [BCL2L13]: 2.63 ± 0.49 and 2.62 ± 0.46.
The matching figures for YFSQVPVLASFILDDGEIDEIRWK [IQUB]: 2.25 ± 0.72 and 2.22 ± 0.28.
The like results for YGRFIRWLNKEKGIFKIEDSAQVA [SPDEF] were, in that order, 2.37 ± 0.35 and 2.48 ± 0.2.
Consider YGSIHGPTDYQVNIQIIEYEKKQT [BTBD1], for which the protein stability index was 2.96 ± 0.48 (treatment: DMSO) and 3.28 ± 0.33 (treatment: MLN4924 1 uM, 8 h).
The matching figures for YHRRHNPKTNEDFEFLYNALEFWR [IQUB]: 1.86 ± 0.36 and 2.61 ± 0.82.
In the case of YIIQQGGWGTVFSLESEEEEYPGI [BCL2L13], the protein stability index reads like this: (treatment: DMSO) 2.46 ± 0.36; (treatment: MLN4924 1 uM, 8 h) 2.9 ± 0.36.
The like results for YLQDHEKKLRLVFKSLDKKNDGRI [SLC25A25] were, in that order, 3.3 ± 0.13 and 3.43 ± 0.41.
As for YLRKGRGETRICKIYDSPCLPEAE [RAD51], the protein stability index reads like this: (treatment: DMSO) 3.65 ± 0.22; (treatment: MLN4924 1 uM, 8 h) 3.83 ± 0.28.
The matching figures for YNMAPSALDSADLPPPSALKKGSK [NFE2L1]: 5.26 ± 0.16 and 5.13 ± 0.3.
YPDQSPSEDWTMEERFRPLTFHGL [CLCN6] registered a protein stability index (treatment: DMSO) of 3.23 ± 0.18 and a protein stability index (treatment: MLN4924 1 uM, 8 h) of 3.37 ± 0.18.
The matching figures for YRCIREARYTMPSSLLAPAKHLIA [PLK2]: 2.56 ± 0.54 and 2.48 ± 0.18.
The matching figures for YRLGYFDDALEDFKKVLDLNPGFQ [TTC32]: 2.59 ± 0.2 and 2.41 ± 0.41.
The matching figures for YSAPPGDPLSTNYSLAPNTPINQN [NFE2L1]: 4.48 ± 0.27 and 4.54 ± 0.2.
Regarding YSGTFALIGAAAFLGGVVRMTISL [CLCN6], the protein stability index is, setting by setting: (treatment: DMSO) 3.78 ± 0.31; (treatment: MLN4924 1 uM, 8 h) 2.86 ± 0.15.
Consider YSIISLLLKDKVRERIQILKTSEV [PTPN9], for which the protein stability index turned out to be 2.9 ± 1.2 (treatment: DMSO) and 2.44 ± 0.31 (treatment: MLN4924 1 uM, 8 h).
The like results for YSPEALASIQNHVRKREAPAPEAE [EFHC1] were, in that order, 4.92 ± 0.19 and 5.06 ± 0.2.
The like results for YVDSPALTNIWMARTCAKQNINAP [C22orf31] were, in that order, 3 ± 0.59 and 2.36 ± 0.24.
The like results for YVERKNSLKKGSLVKNLKDTLGLG [NCK2] were, in that order, 2.85 ± 0.34 and 3.13 ± 0.28.
Take YYLCGFCPAELFTNTRSDLDVFGR [LUC7L3]: the protein stability index reads like this: (treatment: DMSO) 2.26 ± 0.25; (treatment: MLN4924 1 uM, 8 h) 2.04 ± 0.21.

The record behind these values is the supplement of paper PMC10567573.
